Test results published in patent publication US10513540B2, “Modulation of the immune response” (THE BRIGHAM AND WOMEN'S HOSPITAL, INC., priority 2012, dated 2019).

Columns and labels:
CD4+T-cells = test: In vitro re-stimulation of CD4+ T-cells from SEB-immunized mice, TIM3 expression by FACS; type: cell-based, mouse
TIM3 = target: T1, TIM3 (Mus musculus, UniProt Q8VIM0); test: Staining of primary T cells with mouse CEACAM1 N-domain Fc fusion protein with or without blocking antibody (FIG. 9); type: binding; conditions: primary naive T cells of TIM3 Tg mice
T1 construct: expressed in transfected cells; also crossed to Ceacam1-/-), with the transgene under the human CD2 promoter
T1 sequence (Q8VIM0 20-281): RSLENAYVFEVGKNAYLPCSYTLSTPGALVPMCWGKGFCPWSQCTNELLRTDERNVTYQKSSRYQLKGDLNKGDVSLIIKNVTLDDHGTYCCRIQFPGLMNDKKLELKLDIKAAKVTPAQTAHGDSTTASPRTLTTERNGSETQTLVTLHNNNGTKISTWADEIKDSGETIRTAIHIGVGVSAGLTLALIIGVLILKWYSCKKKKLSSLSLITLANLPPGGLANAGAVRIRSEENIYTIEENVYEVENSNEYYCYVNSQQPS
Description: Primary naïve T cells were isolated from B6 (WT) mice with transgenic (Tg) overexpression of TIM3 in T cells, wherein TIM3 is controlled by the human CD2 promotor, and TIM3 Tg mice crossed to […] (knockout) or […]. Primary T cells were stained with a mouse N-domain as an Fc fusion protein in the presence or absence of varying concentrations of a TIM3 specific monoclonal antibody, 2C12, to block binding. *, P<0.05; **, P<0.01

TIM3 on primary T cells = test: In vivo administration of N-CEACAM1-Fc, then in vitro stimulation of lymph node cells with anti-CD3 or SEB (FIGS. 10A-10B); design: species or system mouse; conditions: 100 μg intraperitoneally, lymph nodes at 10 days
CD4+Vβ8+ T cells = conditions: SEB treatment in presence or absence of fusion protein

B1: CEACAM1-Fc fusion protein: mouse CEACAM1 N-domain as an Fc fusion protein; Fc for fusion protein is human (protein)
chain: EVTIEAVPPQVAEDNNVLLLVHNLPLALGAFAWYKGNTTAIDKEIARFVPNSNMNFTGQAYSGREIIYSNGSLLFQMITMKDMGVYTLDMTDENYRRTQATVRFHVHP
modifications: left off: a dimerising Fc or GST
notes: mouse CEACAM1 N-domain as an Fc fusion protein; Fc for fusion protein is human
Q: Which results are given for B1?
A: TIM3 up-regulation in response to SEB re-stimulation (Mean Fluorescence) (CD4+T-cells; SEB-responsive T-cells, CEACAM1 ligation with fusion protein, in vitro re-stimulation): 29%; TIM3 expression on gated CD4+ T-cells (CD4+T-cells; in vitro, 0.5 mg/ml, 48 hours): up-regulates TIM-3 in vitro; Binding to TIM3 on primary transgenic T cells (TIM3): binds in trans to TIM3; Induction of tolerance (proliferation, interferon gamma production) (TIM3 on primary T cells): induce tolerance; T cell receptor engagement by SEB (deletion of CD4+Vβ8+ T cells) (CD4+Vβ8+ T cells): not significantly influenced
